Geometric Mean : R1-A data for one substance are collected here from patent US20240360218A1.

In the assay the target is human PD-L1 (hPD-L1), full length, expressed on cells (human) (UniProt Q9NZQ7). Nature of the assay: flow cytometry, AlexaFluor647-labelled antibody (5 ug/mL per p-1191) on monocyte-derived dendritic cells.
human PD-L1 (hPD-L1), full length, expressed on cells (human), sequence (Q9NZQ7 19-290 limits assumed): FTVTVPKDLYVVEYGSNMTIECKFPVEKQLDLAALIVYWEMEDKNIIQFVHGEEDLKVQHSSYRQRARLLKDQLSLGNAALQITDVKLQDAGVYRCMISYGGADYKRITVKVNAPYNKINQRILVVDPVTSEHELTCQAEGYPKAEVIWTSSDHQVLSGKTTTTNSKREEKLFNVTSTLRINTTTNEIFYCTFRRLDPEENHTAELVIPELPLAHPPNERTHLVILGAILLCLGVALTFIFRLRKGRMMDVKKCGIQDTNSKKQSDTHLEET

Isotype hu IgG1 (D107) (antibody) had a Geometric Mean : R1-A of 379.
